Laboratory results reported in patent US20250332297A1, “DLL3-SPECIFIC BINDING CONSTRUCTS AND THEIR USE IN RADIOTHERAPY” (MOLECULAR PARTNERS AG, priority 2024, published 2025).

What was measured:
human DLL3 = target: T1, human DLL3 (Homo sapiens, UniProt Q9NYJ7); experiment: SPR multi-trace analysis, binding to human DLL3 (Example 1); settings: immobilized bio-DLL3 (hDLL3 ECD), PBS pH 7.4, 1:1 Langmuir, Table 1
T1 construct: (Q9NYJ7, Gene ID: 10683, residues 27 to 466; purchased from Evitria); 3C protease recognition site (C); Fc knob into hole (C); purchased Evitria
T1 sequence (Q9NYJ7 27-466): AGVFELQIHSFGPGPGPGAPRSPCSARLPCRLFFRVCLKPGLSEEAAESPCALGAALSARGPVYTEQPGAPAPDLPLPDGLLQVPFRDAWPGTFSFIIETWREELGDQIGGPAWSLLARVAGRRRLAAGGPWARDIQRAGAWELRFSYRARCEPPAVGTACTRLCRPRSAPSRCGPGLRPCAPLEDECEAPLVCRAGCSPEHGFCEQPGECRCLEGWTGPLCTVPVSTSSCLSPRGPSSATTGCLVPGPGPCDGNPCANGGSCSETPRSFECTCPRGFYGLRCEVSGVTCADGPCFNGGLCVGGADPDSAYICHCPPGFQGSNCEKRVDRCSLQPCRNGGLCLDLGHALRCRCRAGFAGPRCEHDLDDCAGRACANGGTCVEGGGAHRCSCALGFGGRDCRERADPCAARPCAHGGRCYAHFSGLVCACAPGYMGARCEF
Method: Kinetic binding parameters and binding affinities of two domain (2D) ankyrin repeat proteins comprising an ankyrin repeat domain with binding specificity for DLL3 and an ankyrin repeat domain with binding specificity for serum albumin were determined by surface plasmon resonance (SPR) multi-trace analysis.
In brief, a SPR assay was used to determine the binding kinetics to the target human DLL3. The data were generated using BioRad ProteOn instrument in SPR running buffer (PBS, pH 7.4 containing 0.005% Tween 20®). […] The chip was coated with biotinylated target (bio-DLL3) to reach a signal intensity of 1780 RU. All analytes (3-fold dilution ranging from 300-33.3 nM) were injected in succession for 240 s (100 μl/min) and dissociation was recorded for 10800 s (100 μl/min). Each injection was followed by a regeneration step with 16 mM H3PO4 for 18 s. […] The bio-DLL3 target used was as described in U.S. 63/550,951, i.e. the extracellular domain (ECD) of human DLL3 protein (Q9NYJ7, Gene ID: 10683, residues 27 to 466; purchased from Evitria) linked via an Avi-tag (for site-directed biotinylation), followed by a 3C protease recognition site, to a Fc knob into hole (hDLL3 ECD-Avi-Fckih).

hDLL3-MC38 tumor model = experiment: Biodistribution of radio-labelled DARPin conjugates in hDLL3-MC38 tumor model; format: in vivo, mouse; settings: Pb-212 DOTAM conjugate 0.01 mg/kg (10 μCi) i.v., athymic nude mice, s.c. hDLL3-MC38, Example 8
From the text: hDLL3-MC38 tumor model. ATH mice were purchased from Envigo. General handling and maintenance of mice was done as described above for the NCI-H82 tumor model. hDLL3-MC38 cells were purchased from Biocytogen (Catalog No. 311448). […] Cells were quantified using Countess cell counter.
Biodistribution study. […] Based on immunohistochemistry analyses, the hDLL3-MC38 tumors have a higher level of human DLL3 expression than the NCI-H82 tumors described in Example 3 (data not shown). Biodistribution was monitored at 1 h, 4 h and 24h post-injection. Mice were euthanized by CO2 inhalation and cervical dislocation.
Mice were euthanized by CO2 inhalation and cervical dislocation.

[1] = Thermal stability by Circular Dichroism (CD) spectroscopy; format: physicochemical; settings: CD at 222 nm, 20° C. to 90° C., 2 μM in PBS pH7.4; DARPins with C-terminal Cysteine-containing tag (SEQ ID NOs: 15, 16, 18)
Method: Labelling of proteins conjugated to a chelator with a radionuclide may require harsh conditions, including high temperatures. The thermal stability and the propensity to unfold/refold of 2D DARPins MAM279, MAM283 and MAM282 were assessed using Circular Dichroism (CD) spectroscopy.
Samples of the DARPins were diluted to 2 μM in PBS, pH7.4. The assessment was done using a Jasco J-815 spectrophotometer. The Tm (melting temperature) of the selected proteins was determined by CD as a parameter for thermal stability. In brief, the ellipticity was recorded at […] and a temperature range from 20° C. to 90° C. was applied followed by reverse scan to record the refolding behavior. The Tm of the selected ankyrin repeat protein constructs is the midpoint of the protein unfolding. Spectra from 190-250 nm were recorded before and after the temperature scan.

[2] = target: T2, human DLL3 expressed on HEK293T-huDLL3 cells (Homo sapiens, UniProt Q9NYJ7); experiment: Cell binding titration on HEK293T-hDLL3 cells; format: cell-based; settings: presence of human serum albumin (10 μM in FIG. 9 legend, 10 pM in the source), read-out: Cell binding EC50, with HSA
T2 construct: expressed in transfected cells; host or cells: HEK293T-hDLL3
T2 sequence (Q9NYJ7 27-618): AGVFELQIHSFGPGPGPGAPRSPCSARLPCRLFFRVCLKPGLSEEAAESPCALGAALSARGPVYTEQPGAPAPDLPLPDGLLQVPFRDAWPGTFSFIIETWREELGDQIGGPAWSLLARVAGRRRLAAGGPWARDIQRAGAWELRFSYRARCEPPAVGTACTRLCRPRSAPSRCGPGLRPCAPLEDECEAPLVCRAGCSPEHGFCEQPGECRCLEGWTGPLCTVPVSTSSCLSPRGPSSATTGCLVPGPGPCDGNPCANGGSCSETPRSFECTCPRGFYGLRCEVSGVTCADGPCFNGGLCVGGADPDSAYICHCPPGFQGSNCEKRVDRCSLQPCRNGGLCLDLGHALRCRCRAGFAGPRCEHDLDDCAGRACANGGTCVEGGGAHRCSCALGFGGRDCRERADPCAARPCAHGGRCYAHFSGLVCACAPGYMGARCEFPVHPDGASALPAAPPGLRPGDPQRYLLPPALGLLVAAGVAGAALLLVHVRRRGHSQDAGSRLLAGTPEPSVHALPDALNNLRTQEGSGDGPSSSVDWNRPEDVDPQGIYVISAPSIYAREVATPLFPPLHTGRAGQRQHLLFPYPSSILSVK

B1: MAM282: Two domain (2D) ankyrin repeat protein: serum albumin-specific domain (SEQ ID NO: 7), PT linker, DLL3-specific domain (SEQ ID NO: 2) (protein)
chain: DLGKKLLEAARAGQDDEVRELLKAGADVNAKDYFSHTPLHLAARNGHLKIVEVLLKAGADVNAKDFAGKTPLHLAADAGHLEIVEVLLKAGADVNAQDIFGKTPADIAADAGHEDIAEVLQKAAGSPTPTPTTPTPTPTTPTPTPTGSDLGKKLLAAAREGQDDEVRELLKAGADVNAKDIWGQTPLHIAAWFGHLEIVEVLLKAGADVNAKDQTGHTPLHLAAKFGHLEIVEVLLKAGADVNAQDLLGRTPADLAAEEGHEDIAEVLQKAA
modifications: Ankyrin repeat protein (MAM282)
In the case of B1, the Kd (human DLL3) is reported as 3.03 nM, the koff (human DLL3) is reported as 3.79e-05 s⁻¹ and the kon (human DLL3) is reported as 12500 M⁻¹ s⁻¹. The “Blood % ID/g” value (hDLL3-MC38 tumor model; 4 h) was 28.6 % ID/g, the “Kidneys % ID/g” value (hDLL3-MC38 tumor model; 4 h) was 19.4 % ID/g and the “Tumors % ID/g” value (hDLL3-MC38 tumor model; 4 h) was 21.4 % ID/g. For the same molecule, the “Blood % ID/g” value (hDLL3-MC38 tumor model; 24 h) was 9.9 % ID/g, the “Kidneys % ID/g” value (hDLL3-MC38 tumor model; 24 h) was 27.9 % ID/g and the “Tumors % ID/g” value (hDLL3-MC38 tumor model; 24 h) was 51.9 % ID/g. For the same molecule, the “melting temperature (Tm)” value [1] was “above 90 °C” and the EC50 [2] was 19.6 nM.
